Assay [1] deals with α-chymotrypsin (bovine). The assay can be described thus: enzyme inhibition kinetics.
Assay [2] concerns the target α-chymotrypsin (bovine).
For assay [3], the target named is α-chymotrypsin (bovine). The source holds these as a separate data set.
In assay [4] the target is α-chymotrypsin (bovine). This is another data set of the same source.

“Trichinella pseudospiralis serine protease inhibitor (Tp-serpin) (natural protein)”: in assay [1], the Ki (as a rule, the equilibrium dissociation constant of an inhibitor or competing ligand from its target) was determined as 47.9 nM. Moreover, the k3, rate constant of the irreversible inhibition of α-chymotrypsin (BTEE hydrolysis, 256 nm) in assay [2] turned out to be 0.00235 s⁻¹. In assay [3], the stoichiometry of inhibition (SI), residual chymotrypsin activity against the molar ratio [I]/[E] was determined as 1.19. Moreover, in assay [4], the inhibition rate of α-chymotrypsin enzyme activity at 200 nM serpin was greater than 80%.

The substance “Trichinella spiralis serine protease inhibitor (Ts-serpin) (natural protein)” came in with a Ki in assay [1] of 49.2 nM. Also, the k3, rate constant of the irreversible inhibition of α-chymotrypsin (BTEE hydrolysis, 256 nm) in assay [2] turned out to be 0.00247 s⁻¹. In addition, in assay [3], the stoichiometry of inhibition (SI), residual chymotrypsin activity against the molar ratio [I]/[E] came out at 1.21. The same substance yielded an inhibition rate of α-chymotrypsin enzyme activity at 200 nM serpin in assay [4] greater than 80%.

For the origin of these results see PMC11905679.
